The data set deals with the molecule itself. Nature of the data set: crystal structure; SAD phasing, 1.5 Å; hanging-drop vapor diffusion at 291 K, 10 mg/ml Se-Met protein, well solution 1% ethylene glycol, 1.8 M ammonium sulfate, 100 mM MES pH 6.0; space group P212121; contact between symmetry-related molecules in the crystal.

B1: human protein N-terminal glutamine amidohydrolase isoform 1 (hNtaq1) (enzyme)
chain: not shown
modifications: Se-Met labeled (selenomethionine in place of methionine)
notes: human N-terminal glutamine amidohydrolase isoform 1, encoded by the C8orf32 gene; 205 amino acids (Ser1 to Cys205), initial Met replaced by Ser after TEV cleavage; 202 residues modeled, Lys203, Asn204 and Cys205 disordered; Cloned by Gateway into pVP16 with N-terminal (His)6-MBP and a TEV site; also called human Ntaq1; not shown: His6, N-terminal, cleaved; MBP, N-terminal, cleaved
In the case of B1, the binding result is “binds”.

The record behind these values is paper PMC4214742, “Crystal Structure of Human Protein N-Terminal Glutamine Amidohydrolase, an Initial Component of the N-End Rule Pathway” (PLoS ONE, 2014).
